{"source": "paper PMC3919167", "target": "Bacteriophage P23-77 small major capsid protein VP16, recombinant (bacteriophage P23-77)", "assay": "SEC"}
{"substance": "Bacteriophage P23-77 small major capsid protein VP16, recombinant (natural protein)", "values": [{"measurement": "stoichiometry N", "result": 2}]}
